Assay results: the domain aggregation screens of Martell et al. (2025)

Test: soluble fraction after stress (log2 fold change); higher = more stays soluble; pooled small domains, quantitative proteomics
Conditions: stress: 50 degC
Outline: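 Custom libraries of small protein domains were pooled and measured in a high-throughput format, with quantitative proteomics as the read-out. Each library was stressed at 50°C. The value is the log2 fold change in the amount of each protein that stays soluble after stress, used as a measure of aggregation propensity; higher values mean more of the protein stays soluble.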

Compared with “HMVEFLMESTNGMYGIVKEGSSYYVQKGINESSLDYIGGMFMKDKNRFSSYSTALKRLELISGQET”, “HMVEGMQFDRGYQSPYFVTNAEKMVAELDNPYILLVEKKISSMKELLPVLEPVAQQGKSLLIISEEVEG” is higher in “soluble fraction (log2)” value: -0.328 for the first, -0.0564 for the second.

“HMVEGTVKWFNDEKGFGFIEQEGGKDVFVHFSAINGSGRRTLHEGQRVTMEVTQGQKGPQAENVNP” and “HMVEIPEFKITTFVNTDNEQIAEFENGFTDKKAEITFNNTKYVFKEKLPDQDGIRTYVYEELHE” are within 0.2 log units of each other in “soluble fraction (log2)” value: 0.181 for the first, 0.117 for the second.

First: HMVELGMSQNEFIQKFGKPFNKEMAYTYDKHKRETLFYKEDLYRGSWFIVTTAFTFVDSKLVSQEIVREER
Second: HMVENMDEFIGRVRRLVSDRLDLLKEASDDEIRETISQVVLELSREQFLTLNEKKTVLEGVFNSMR
The “soluble fraction (log2)” value of the first is lower: -3.41 for the first, -0.399 for the second.

Going from “HMVERLVVSPGAGVFAPNKAIANGTRISVGDVLGMVGEQEVRSLFDGVLQSFISVDGERLTAHQPVAWLRT” to “HMVEVPKVAGMSTAQGVSELEQKGFVVNRTESYDDTVPKGNIISQTPEGGTKVPSGSAVTIKISQGAE”, the “soluble fraction (log2)” value rises from -0.536 to -0.157.

“HMVEVPNVIGMTKPELTQQFVNLKLDGSGEGDVVVQQSPSEGSKVKEGSTVRVYFG” and “HMVEVPNVSNLTLEQAENKLIQQGLQVKLEGQGEKVVAQIPQPGAVVNKKSTVILF” are within 0.2 log units of each other in “soluble fraction (log2)” value: 0.0119 for the first, 0.129 for the second.

Compared with “HMVFLPDEIFRLKVIKAGEGPEQGVGYLDDGTMVVIEGARDRIGDELEVRVTSTLQTNAGKMIFTKFE”, “HMVGEPEPIRYSRFLDEMKSGKLDSVVIQGDTILGVRKDKSQFKTVNPETDYSALIGALDKAGVGIEGRA” is higher in “soluble fraction (log2)” value: -0.186 for the first, 0.146 for the second.

Compared with “HMVGEYTVKKGDTLWKIAGQTLGSPLRYAEIYELNKDVIEEAALGRGKKNSSNGHWIFQGTVLKIPA”, “HMVGIAEAMKHIADEDYGDLSAIFKQIFSDTDGGRNFSDAIRTQMRSTDSSGLRKVLSTLIMSIEE” is lower in “soluble fraction (log2)” value: -0.00974 for the first, -0.498 for the second.

Going from “HMVGNEEALRAIVESIIAQNTTEVASFREGKEGLIGWFLGQVMRQTGGKADPKLARQILLELLKQ” to “HMVGNYYDILGVPETATQDAIKKAFRSLAQQHHPDKNPDDPGAEAMFKKVSEAYQVLSDPDKRQTYDASL”, the “soluble fraction (log2)” value rises from -0.242 to 0.00894.

First: HMVIDFYDPQTKVIHEIKKSSAKEEAHVWQVKYYIYLFEKEEIMGVKGVLEYPLLREIVSVNF
Second: HMVINQRKLNLLSIYSSGSEKRAIILFPTGQTKFVKVGDTLDGGRVAAIGTSEIRYLKGGNNLVLRIPG
The “soluble fraction (log2)” value of the first is higher: 0.187 for the first, -2.63 for the second.

Compared with “HMVINTRHTGFVVDDLERFINFYLGLGLKLISRKVESGEYIDKLVGLKGTKLEWAKLSLPDNSMIEILKYH”, “HMVIREVNDNPVSAEELRLGDRVKVLSLGQNGEIVTLPDEKGELTVQVGILKAKVNLDDIMLI” is higher in “soluble fraction (log2)” value: -0.375 for the first, 0.0226 for the second.

First: HMVISAKRMQDRRDSILDAAREAFARAGFEGTSIADIARRAGVSDGLVYRYFASKRDLLNAVLTA
Second: HMVIVGGDVIVHYVDTEGKKISDDVVKSGNVGEDYSTDQKTILGYRFKEVQGNTSGKFTDKTQVVTYIYT
The “soluble fraction (log2)” value of the first is lower: -0.83 for the first, 0.404 for the second.

Going from “HMVKEVKVPDVEGLTTEEAIKELKKYGLAYTTKSEENTDIEEGKVIRTEPKKGSTKVKGSTVTIIESSG” to “HMVKFGERVKQLRLSAGMTQEQLAERIWVTKAAISNYELSERNPSPETIIKIAGVFGVTTDYLLGLED”, the “soluble fraction (log2)” value falls from -0.169 to -0.5.

Compared with “HMVKIVWSKEGPYVGTRVRRYFSQGPVDGTVVMYAKPQKGDDVALWRISHDDGDEEDLEEQELRLAID”, “HMVKLQATPSQRKTLDELYVQLKKLEPTAKEDLSLLRRLENSHLVSKQEAQGLISKAIGRVGALAVEQQP” is higher in “soluble fraction (log2)” value: -1.65 for the first, 0.0652 for the second.

Going from “HMVKNTIHVDLKGEVNKPGVYEVEEGTIVNDLITLANGFTKNAYQDNINLSKKLTDEMVIVVSKKGS” to “HMVKNVVIPDVSNKAPVDASNQLTDLGFEVVTEYKYIASDTIEEGKVVKTSPEIGSKRKYGQKITLYISSG”, the “soluble fraction (log2)” value falls from 0.337 to -0.56.

Compared with “HMVKRAYGEYVNVKLTDADLSKLKADFPADWQERIERLSTYMASTGKTYKNHLATIRNWARRDAERVSA”, “HMVKVSVYPNPAVDRITISGEVKAYAVYDATGKVVMKDTDYRGGAIGVSHLPAGIYIVRTDAGAVTVNK” is lower in “soluble fraction (log2)” value: 0.22 for the first, -0.652 for the second.

Going from “HMVLSVRDRMVQILDQVKTGEYKRIEDFFSADEGRTGFVVSFVAILELVKGGLLTITQSKNLAPIYVRLPN” to “HMVLVEEYDTKDSASTFKIGYYARYNTKYGTPSKVGSYADNQRSGIWTFYTDSLKTYFKYNYSTGLIL”, the “soluble fraction (log2)” value rises from -0.19 to 0.115.

Going from “HMVLVGERRQKILEVVSSGKAVTVEELSRILHVSPSTVRRDLRFLESRGLLYRTHGGAMPPV” to “HMVLVKFEWTPPDARILVDDHPVEARDKEMELPEGTHHVQALAPRGSGYESTVTDIEVRQGMDPVRIAL”, the “soluble fraction (log2)” value rises from -1.1 to -0.182.

First: HMVMRHTVEHDAELLAVLRLMYPASSSTKLRKMLTQGRVLVNDDVVHRAKHGVASGDTVDVIVRQRAE
Second: HMVNFKLIGNKIAEARKKVNISQAQLAQRLFISSQAVGKWERGESMPDIITFNRLAEILGVDLNYFSE
The “soluble fraction (log2)” value of the first is lower: -1.03 for the first, 0.0107 for the second.

“HMVNPDAPAPLYIVNGKETDKNIALAIKPEDVQDVRIIKNTVALQVYGEKGKNGVVIINTKPGV” and “HMVNSADLAAKPFIDLLVSTRQQLREAKQYDLADTIRDELTNHGITIEDKPQGSEWQYEFNPNS” are within 0.2 log units of each other in “soluble fraction (log2)” value: 0.206 for the first, 0.112 for the second.

Compared with “HMVNTYILNNKEYPIEIIRKNNKNTYLRVKEGKIIVTTNYLTSSFTINKLIKDNTSFINKALLKEN”, “HMVNYKEILRLAHEGYSQRQIATNIGNSRNTVSEVLDAAKAANIAWPPEETVTNEQLGAILFPNRH” is higher in “soluble fraction (log2)” value: -0.595 for the first, 0.204 for the second.

“HMVNYKEILRLSAEGNSQRQIAAGSGNSRNTVIEVLEAARARGITWPLDEPVTNEQLEAILFPNRY” and “HMVPEETKQFINQLNHGSLSIRMNAANNLEKLGLLAIPEIEAALPKAHGEAAFRLPRLLHALVLRETEYF” are within 0.2 log units of each other in “soluble fraction (log2)” value: 0.134 for the first, -0.00885 for the second.

Going from “HMVPEMIRDVISKSIRDMGVLPDHMQINERIALIQSLKKQQILGIKGAVAETARQLGISVPTVYRYMKKG” to “HMVPFISVTPTSLSFAKGGESKTVDIEASGAFSVGKVPTGFNLEVVNGRITITADANTGAARNGSVEFILA”, the “soluble fraction (log2)” value rises from -0.362 to -0.0614.

Going from “HMVPHTTSMVAEVQERLFNLNYDPGPINGRMDQATITAITRFQRNFSLPQTGQIDEGFLNTLRDARL” to “HMVPLGDLSKNERRAMELAATNGNVTTRALADDAQVTKRTASTTLRRLAKRGLLEWIGKGPSDPGQFYRIP”, the “soluble fraction (log2)” value rises from -0.981 to -0.123.

Compared with “HMVPLTPGELVGTEVRVLWWKEGRGEVIASSRGHQLTLEAHSEDPLRAGSTAVVLEAADDVLVVTS”, “HMVPPELEFLQSLMKIEDISELTAAIENNRDAVTDDFKEMLETVIENISGAPDTDPKLLERLKTIRTVLA” is higher in “soluble fraction (log2)” value: -0.569 for the first, 0.0197 for the second.

Going from “HMVPPVVRTIYGAGGKMTATFLFPGGYEVDAASGAELPGKYRVESISLDQVVLTDKDGNRVPVGFSSVAPT” to “HMVPQEVLPITLIIDGKLIEENLLYAKMTEQVLIQQLDINNIKSIKQILFAGLDSFGNFFYQEKQN”, the “soluble fraction (log2)” value falls from 0.0614 to -1.8.

First: HMVPTATVGENTSTLPVRQLPGGPVLVVLVRGDIVLPLPGHAFQNGDVWREISTVNGVIGWVPDEFLDY
Second: HMVPTVSVDRDDTLRFEGRPVDWDVLKRELGAVAGIDELKIYADAKVSALTVSKIMKSASEAGVLQFILVT
The “soluble fraction (log2)” value of the first is lower: -1.9 for the first, -0.188 for the second.

Compared with “HMVQARDQNIEEGRQLVLRELDRLDLVNESLTDVAADMNMKSVEDMYAAIGAGDLRVGQVVHAVLKRAD”, “HMVQDSEWWRNYQSAHDYFIQNGHLNVLRSDKKNTKLYNWIVGQRSSRWNSQGRINLLNSIGFIWDT” is lower in “soluble fraction (log2)” value: 0.00761 for the first, -3.08 for the second.

Compared with “HMVQISNTDDLYPIVQRIVDANPQSVEDYKNGKAKALGFLVGQMMKETKGKANPSMVNDLIIKAIEE”, “HMVQIVINKEVQTTSQTILRENAGTSSRNIGYVDPNVKLRATLDRNSFYFIPEKKGWIMKSRVKLIEDLS” is lower in “soluble fraction (log2)” value: 0.123 for the first, -3.79 for the second.

First: HMVQMNMLELQEEMQRDRSWIIKHLFQDEYFRRKIAKFSQFPINDSGKYLFHRKSMLKFLNDYAEEIVER
Second: HMVQPSAAVRAHPVGAFVEQRQGLSDDQILALQKKWNEGIYARIQGTRWFLFSKDTPAVTSLLLVPDLP
The “soluble fraction (log2)” value of the first is lower: -2.56 for the first, -0.555 for the second.

Going from “HMVQVHEWTNKAGRTIKAKFVRGDAQSVTIFLGGRNFVLKIADLSEESQALARKLSAPPPPP” to “HMVQVPSLVGISEIEAKTLLTQAGFFVKIVEVFDANQPVGIVLAQAPSAGESRIIGSPVTITVNKAQ”, the “soluble fraction (log2)” value falls from -0.607 to -0.867.

Going from “HMVQVRQPAGAGDLFAKGRLHLSTGTIHTVKPLEVDLPKGRLTVVTGVSGSGKTTLILESLLPALAAAAA” to “HMVRSLESESVYDRQRAYEIAYQLRTEERPYSFIATQLNKAGLRPQKAARYEWYSVQELLRSA”, the “soluble fraction (log2)” value falls from 0.482 to -0.956.

“HMVSDISTQYQKIINEALDKQPEVKLADIVTMIKEQTSNKVQNGIVENVAKQMNGIEIIKIGQAKGVRRTT” and “HMVSDTGAIEAIVAQVLADNPKLVEGYLATPEDKRGKAIGPFIGLTRKAAAGVNPQVVMDVLKKKLSEL” are within 0.2 log units of each other in “soluble fraction (log2)” value: 0.116 for the first, -0.0515 for the second.

Compared with “HMVSEASELTDTINKIGSLAQALVGANKLSKTDLVGIIKKYHTSANYNSITDIGVAKNILAELEAKN”, “HMVSFSIDEALVSAVKGPRSANVMSIQRQFLVRLSVERDGRVTITGANSKSVQQAREAVEAAVEEAKLHP” is lower in “soluble fraction (log2)” value: 0.0739 for the first, -0.827 for the second.

First: HMVSGVMAQQAIAVLVQQEDKHAPLSDQALAERLQVQGIDISRRTVAKYRQLLQIPSAATRR
Second: HMVSIGSQVAKRRRELRLTQQNLAEKMGVSFQAISSWEREEFLPDINKLQKLAAILNTKISYLLEE
The “soluble fraction (log2)” value of the first is higher: -0.419 for the first, -1.3 for the second.
